In patent publication US20220332804A1 (CSL INNOVATION, published 2022):

What was measured:
Assay in all cases: SPR, KD relative to WT C2;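 note: biacore SPR at 37 °C, anti-C2 mAbs captured via immobilised goat anti-human IgG, C2 alanine or serine surface mutants as analytes, 1:1 model fitted, double-referenced sensograms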
human C2 T647A = target: T1, human C2 T647A (human, UniProt P06681 21-752)
T1 sequence: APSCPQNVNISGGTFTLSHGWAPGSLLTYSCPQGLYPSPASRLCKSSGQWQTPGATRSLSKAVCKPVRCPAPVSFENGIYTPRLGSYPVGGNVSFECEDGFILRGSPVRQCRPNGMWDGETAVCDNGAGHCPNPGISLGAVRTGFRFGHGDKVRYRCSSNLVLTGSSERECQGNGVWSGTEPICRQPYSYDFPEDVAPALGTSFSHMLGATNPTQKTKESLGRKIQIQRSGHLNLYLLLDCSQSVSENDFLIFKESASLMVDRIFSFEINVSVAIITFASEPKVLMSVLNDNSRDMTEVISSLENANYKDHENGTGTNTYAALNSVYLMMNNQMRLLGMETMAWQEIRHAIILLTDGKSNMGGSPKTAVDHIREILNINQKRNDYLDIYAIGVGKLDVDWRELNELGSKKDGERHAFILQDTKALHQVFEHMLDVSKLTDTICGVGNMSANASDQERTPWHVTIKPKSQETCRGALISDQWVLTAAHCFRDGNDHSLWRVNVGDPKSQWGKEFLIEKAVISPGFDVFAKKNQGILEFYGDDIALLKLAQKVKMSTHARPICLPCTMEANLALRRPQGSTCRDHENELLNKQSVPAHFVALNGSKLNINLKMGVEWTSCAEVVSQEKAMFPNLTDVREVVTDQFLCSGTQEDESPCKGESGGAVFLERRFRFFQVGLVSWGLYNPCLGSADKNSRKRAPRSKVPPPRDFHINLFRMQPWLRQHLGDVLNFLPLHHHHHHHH

human C2 E645A = target: T2, human C2 E645A (human, UniProt P06681 21-752)
T2 sequence: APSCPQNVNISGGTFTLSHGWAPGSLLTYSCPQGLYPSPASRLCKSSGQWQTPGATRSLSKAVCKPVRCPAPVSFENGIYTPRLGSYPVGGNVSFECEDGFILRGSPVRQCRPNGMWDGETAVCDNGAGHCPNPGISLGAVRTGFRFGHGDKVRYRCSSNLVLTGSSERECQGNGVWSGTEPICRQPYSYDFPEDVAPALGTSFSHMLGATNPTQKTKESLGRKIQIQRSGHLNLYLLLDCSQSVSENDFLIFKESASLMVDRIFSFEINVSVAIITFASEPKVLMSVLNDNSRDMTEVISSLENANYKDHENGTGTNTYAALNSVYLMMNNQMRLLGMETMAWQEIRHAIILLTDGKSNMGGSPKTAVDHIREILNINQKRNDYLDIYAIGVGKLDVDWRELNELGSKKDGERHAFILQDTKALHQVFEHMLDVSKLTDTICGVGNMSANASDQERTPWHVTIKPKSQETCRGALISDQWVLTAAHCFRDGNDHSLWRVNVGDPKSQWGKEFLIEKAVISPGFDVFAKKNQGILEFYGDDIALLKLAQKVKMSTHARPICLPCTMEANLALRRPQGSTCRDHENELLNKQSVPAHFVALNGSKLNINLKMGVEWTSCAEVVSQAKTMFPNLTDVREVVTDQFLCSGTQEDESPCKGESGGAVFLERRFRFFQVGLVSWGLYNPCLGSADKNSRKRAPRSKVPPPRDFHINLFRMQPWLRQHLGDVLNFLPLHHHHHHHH

human C2 V465A = target: T3, human C2 V465A (human, UniProt P06681 21-752)
T3 sequence: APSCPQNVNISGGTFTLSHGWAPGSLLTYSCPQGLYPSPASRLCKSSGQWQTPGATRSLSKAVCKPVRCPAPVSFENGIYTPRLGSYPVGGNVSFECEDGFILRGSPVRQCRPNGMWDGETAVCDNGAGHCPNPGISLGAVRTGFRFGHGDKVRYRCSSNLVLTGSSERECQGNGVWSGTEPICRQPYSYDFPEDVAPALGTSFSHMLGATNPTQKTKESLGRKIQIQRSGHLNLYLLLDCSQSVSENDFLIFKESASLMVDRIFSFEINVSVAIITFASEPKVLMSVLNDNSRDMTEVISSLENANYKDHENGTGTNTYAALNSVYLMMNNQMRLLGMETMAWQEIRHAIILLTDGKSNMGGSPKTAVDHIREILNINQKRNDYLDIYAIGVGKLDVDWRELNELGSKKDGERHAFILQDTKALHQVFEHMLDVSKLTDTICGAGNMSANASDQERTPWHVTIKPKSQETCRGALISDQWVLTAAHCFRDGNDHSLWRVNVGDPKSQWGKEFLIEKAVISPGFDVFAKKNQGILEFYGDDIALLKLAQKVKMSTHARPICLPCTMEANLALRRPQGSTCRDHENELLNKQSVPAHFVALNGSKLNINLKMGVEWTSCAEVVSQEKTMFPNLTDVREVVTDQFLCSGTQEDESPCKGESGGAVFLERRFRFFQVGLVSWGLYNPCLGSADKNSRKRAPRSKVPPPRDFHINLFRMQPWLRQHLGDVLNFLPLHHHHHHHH

human C2 P486A = target: T4, human C2 P486A (human, UniProt P06681 21-752)
T4 sequence: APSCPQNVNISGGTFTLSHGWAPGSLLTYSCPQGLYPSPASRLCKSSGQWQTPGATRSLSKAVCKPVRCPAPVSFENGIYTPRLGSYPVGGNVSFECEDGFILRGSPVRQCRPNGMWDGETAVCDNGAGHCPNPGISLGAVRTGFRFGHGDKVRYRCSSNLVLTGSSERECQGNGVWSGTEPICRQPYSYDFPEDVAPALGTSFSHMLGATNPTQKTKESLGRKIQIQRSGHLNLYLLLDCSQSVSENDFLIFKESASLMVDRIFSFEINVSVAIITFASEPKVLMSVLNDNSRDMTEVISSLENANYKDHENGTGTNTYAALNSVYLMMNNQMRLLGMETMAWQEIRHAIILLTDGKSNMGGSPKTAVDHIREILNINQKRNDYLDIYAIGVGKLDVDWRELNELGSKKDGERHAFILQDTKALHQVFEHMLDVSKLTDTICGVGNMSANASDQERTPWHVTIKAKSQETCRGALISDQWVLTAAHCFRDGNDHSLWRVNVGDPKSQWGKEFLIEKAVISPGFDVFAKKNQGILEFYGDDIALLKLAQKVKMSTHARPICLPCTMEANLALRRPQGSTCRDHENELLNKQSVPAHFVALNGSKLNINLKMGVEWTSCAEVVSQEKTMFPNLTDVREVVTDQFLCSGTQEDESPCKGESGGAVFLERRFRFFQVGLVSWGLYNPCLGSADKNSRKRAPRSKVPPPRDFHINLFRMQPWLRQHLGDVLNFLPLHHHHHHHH

B1: RF16-226 (antibody, human IgG4 S228P, lambda)
heavy: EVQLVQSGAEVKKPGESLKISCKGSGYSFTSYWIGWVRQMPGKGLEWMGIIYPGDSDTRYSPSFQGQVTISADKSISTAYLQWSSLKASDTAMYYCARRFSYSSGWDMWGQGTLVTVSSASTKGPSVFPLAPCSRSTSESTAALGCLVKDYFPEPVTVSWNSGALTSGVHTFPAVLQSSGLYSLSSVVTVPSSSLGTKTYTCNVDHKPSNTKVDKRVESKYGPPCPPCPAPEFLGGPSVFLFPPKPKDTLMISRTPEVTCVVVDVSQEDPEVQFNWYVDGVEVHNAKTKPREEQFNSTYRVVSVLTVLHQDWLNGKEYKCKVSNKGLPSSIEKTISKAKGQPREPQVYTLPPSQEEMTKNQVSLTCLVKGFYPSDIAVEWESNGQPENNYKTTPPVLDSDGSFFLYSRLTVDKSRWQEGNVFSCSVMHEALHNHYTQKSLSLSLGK
light: SYELTQPPSVSVSPGQTARITCSGDALTSKYVAWYQQKSGLAPLLVIYEDTRRPSGIPAKFSGSSSGSVATLTISGAHGDDEADYYCYSTDASGHQRVFGGGTKLTVLSQPKAAPSVTLFPPSSEELQANKATLVCLISDFYPGAVTVAWKADGSPVKAGVETTKPSKQSNNKYAASSYLSLTPEQWKSHRSYSCQVTHEGSTVEKTVAPTECS
notes: pH-dependent anti-C2 antibody from a phage display library; also called WT
Binder B1 has a Fold diff (human C2 T647A) of 15 fold, a Fold diff (human C2 E645A) of 1 fold and a Fold diff (human C2 V465A) of 2 fold. It also gave a Fold diff (human C2 P486A) of 1 fold.
